Measured values taken from PMC5004165.

Target: T1, NF-kB p50 homodimer (UniProt P19838)
T1 sequence: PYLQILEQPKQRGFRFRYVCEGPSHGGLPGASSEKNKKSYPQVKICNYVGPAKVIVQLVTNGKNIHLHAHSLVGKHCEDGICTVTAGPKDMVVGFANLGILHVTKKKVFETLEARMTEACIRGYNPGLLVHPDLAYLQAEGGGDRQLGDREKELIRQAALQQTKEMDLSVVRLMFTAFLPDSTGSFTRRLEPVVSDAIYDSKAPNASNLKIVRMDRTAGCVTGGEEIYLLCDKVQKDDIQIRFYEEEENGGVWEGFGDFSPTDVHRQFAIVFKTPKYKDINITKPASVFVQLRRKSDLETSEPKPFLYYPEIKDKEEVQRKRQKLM
Assay: SPR
Conditions: EMSA: 10 mM Tris-HCl pH 7.5, 50 mM NaCl, 1 mM DTT, 1 mM EDTA, BSA (printed 10 mg/mL), 1% NP-40, 5% glycerol, poly(dI-dC), 20 C 45 min, SPR: 10 mM Tris-HCl pH 7.; for binding signal (% of unplatinated plateau): steady state

[1] = BBR3464 adducts, 1 per duplex, global
[2] = transplatin adducts, 1 per duplex, global

Work on “CCTACCAAGTCTGAGGGGACTTTCCCAGGC (double strand) [DUPLEX-kB(SPR-BIO) BBR3464]” yielded a Kd [1] of 3.99 nM and a binding signal (% of unplatinated plateau) [1] of 21.

“CCTACCAAGTCTGAGGGGACTTTCCCAGGC (double strand) [DUPLEX-kB(SPR-BIO) cisplatin]” gave a Kd (cisplatin adducts, 1 per duplex, global) of 2.38 nM.

With “CCTACCAAGTCTGAGGGGACTTTCCCAGGC (double strand) [DUPLEX-kB(SPR-BIO) transplatin]” the binding signal (% of unplatinated plateau) [2] was 88 and the Kd [2] was 1.99 nM.

“CCTACCAAGTCTGAGGGGACTTTCCCAGGC (double strand) [DUPLEX-kB(SPR-BIO)]” gave a Kd of 1.96 nM.
